The text below walks through data of patent US20160237160A1 (Bayer, published 2016).

Assay [1] concerns the target T1, TWEAKR (TNFRSF12A, FN14), human, on tumor cell lines (human, UniProt Q9NP84 28-129). The assay can be described thus: cell-based or functional assay.
Assay [2] has as its target T2, TPP-2614 (TweakR-ECD-34-68-hIgGFc-His-D47A) (human).
T2 construct: also called D47A TWEAKR mutein
The assay can be described thus: ELISA, IgG coated 1 ug/ml, TWEAKR variant 250 ng/ml, anti-HIS HRP (FIG. 6C). On the technique in general: In an ELISA, binding on a coated surface is turned into a signal by an enzyme label.
Description: Antibodies were coated (1 μg/ml), TWEAKR variant was added at 250 ng/ml, detection via anti-HIS HRP. […] Antibodies were coated (1 μg/ml), TWEAKR variant was added 250 ng/ml, detection via anti-HIS HRP.

Assay [3] addresses T3, TPP-2305 (hTNFRSF12Aaa28-80) (Human, UniProt Q9NP84 28-80).
T3 construct: monomeric extracellular domain, bought; also called purified recombinant human TWEAKR protein; soluble monomeric TWEAKR
The assay can be described thus: SPR (Biacore T100), IgG captured, TPP-2305 injected, 1:1 model. Background: SPR reads the build-up and loss of mass on a sensor chip optically.
Description: Binding affinities of anti-TWEAKR antibodies were determined by surface plasmon resonance analysis on a Biacore T100 instrument (GE Healthcare Biacore, Inc.). Antibodies were immobilized onto a CM5 sensor chip through an indirect capturing reagent, anti-human IgG(Fc). […] Anti-TWEAKR antibodies were injected at a concentration of 10 μg/ml at 10 μl/min for 10 sec.
Sensorgrams were generated after in-line reference cell correction followed by buffer sample subtraction. The dissociation equilibrium constant (KD) was calculated based on the ratio of association (kₒₙ) and dissociation rated (koff) constants, obtained by fitting sensorgrams with a first order 1:1 binding model.

Assay [4] concerns the target T1, TWEAKR (TNFRSF12A, FN14), human, on …. The assay can be described thus: cell-based or functional assay. The source holds these as a separate data set.
For assay [5] the target is unchanged. The assay can be described thus: FACS, A375 cells, 10 ug/ml. For orientation: In flow cytometry, cells or beads pass a laser one at a time.
The target is the same in assay [6]. The assay can be described thus: FACS, HT29 cells, 10 ug/ml.
The target is the same in assay [7]. The assay can be described thus: FACS, WiDr cells, 10 ug/ml.
For assay [8] the target is unchanged. The assay can be described thus: FACS, 786-O cells, 10 ug/ml.
Description: (§1) To determine the binding characteristics of the anti-TWEAKR antibodies on mouse and human cancer cell lines, binding was tested by flow cytometry to a panel of cell lines. […] Cells were suspended at approximately 10⁵ cells/well in FACS buffer (PBS without Ca/Mg, containing 3% FCS, Biochrom). Cells were centrifuged (250 g, 5 min, 4° C.) and supernatant discarded. Cells were resuspended in dilutions of the antibodies of interest (10 μg/ml in 80 μl if not indicated otherwise) in FACS buffer, and incubated on ice for 1 h. […] After incubation for 1 h on ice cells were again washed with cold FACS buffer, resuspended in 1000 FACS buffer and analyzed by flow cytometry using a FACS-Array (BD Biosciences). Results are calculated as Geo Mean of fluorescence detected by the antibody of interest subtracted by background fluorescence as measured by detection with the secondary antibody alone. Values are scored according to the following system: Geo Mean−Geo Mean of secondary antibody alone >10: +, >100: ++, >1000: +++, 10000: ++++, close to category border in ( ).
Assay [9] has the same target. The assay can be described thus: FACS, SKOV-3 cells, 10 ug/ml.
For assay [10] the target is unchanged. The assay can be described thus: FACS, NCI-H322 cells, 10 ug/ml.
Description: as §1
Assay [11] shares this target. The assay can be described thus: cell-based or functional assay. The source holds these as a separate data set.
Assay [12] has as its target T4, TPP-599 (HUMAN-TNFRSF12Aaa28-80-hIgG1-Fc) (human).
T4 construct: dimeric; also called human TWEAKR Fc; TWEAKR-Fc
The assay can be described thus: ELISA, TWEAKR-Fc coated 62 ng/ml, biotin-IgG titrated; + means IC50 1 to 150 pM.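 Also: biotinylated IgG binding to immobilized TWEAKR-Fc muteins, detected with Streptavidin-HRP and Amplex Red, IC50 derived from fitted dose-response curves of twofold serial dilutions.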
Description: (§2) To collect dose-response data, the different TWEAKR-Fc muteins were coated with a low concentration (62 ng/ml) in a 384-well Maxisorb ELISA plate and a serial 2fold dilution of biotinylated IgG starting with a concentration of 100 nM was used as soluble binding partner. Detection was done with Streptavidin-HRP and Amplex Red.
(§3) The dose-response data were fitted and IC50s determined.

Assay [13] deals with TPP-1986 (hTNFRSF12Aaa28-80-T33Q-hIgG1-Fc) (human). The description is as above.
Description: as §2, §3
The target in assay [14] is TPP-1987 (hTNFRSF12Aaa28-80-S40R-hIgG1-Fc) (human). Described as above.
Description: as §2, §3
Assay [15] deals with TPP-1988 (hTNFRSF12Aaa28-80-M50A-hIgG1-Fc) (human). The description is as above.
Description: as §2, §3
The target of assay [16] is TPP-2683 (hTNFRSF12Aaa28-80-R56P-hIgG1-Fc) (human). The description is as above.
Description: as §2, §3
In assay [17] the target is TPP-1989 (hTNFRSF12Aaa28-80-H60K-hIgG1-Fc) (human). Described as above.
Description: as §2, §3
The target in assay [18] is TPP-1990 (hTNFRSF12Aaa28-80-L65Q-hIgG1-Fc) (human). The assay is described as above.
Description: as §2, §3
In assay [19] the target is T5, TPP-2202 (TWEAKR-ECD-28-80-hIgGFc-His) (human).
T5 construct: dimeric; also called TWEAKR-Fc fusion protein; full ectodomain 28-80
The assay can be described thus: ELISA, TPP-2202 coated at 1 µg/ml, biotinylated IgG at 0.08 µg/ml (open bar) and 0.3 µg/ml (filled bar), Streptavidin-HRP, Amplex Red.
Description: (§4) Detection was done with Streptavidin-HRP and Amplex-Red substrate.
(§5) To analyze for binding, 1 μg/ml of the respective dimeric TWEAKR-Fc construct were coated and, 0.3 μg/ml and 0.08 μg/ml of biotinylated IgG were used as soluble binding partner. Detection was done with Streptavidin-HRP and Amplex-Red substrate.

The target of assay [20] is T6, TPP-2203 (TWEAKR-ECD-34-68-hIgGFc-His) (human).
T6 construct: dimeric; also called TWEAKR(34-68)-Fc fusion protein; truncated ectodomain 34-68
The assay can be described thus: ELISA, TPP-2203 coated at 1 µg/ml, biotinylated IgG at 0.08 µg/ml (open bar) and 0.3 µg/ml (filled bar), Streptavidin-HRP, Amplex Red.
Description: as §4, §5

Changes are numbered by the printed parent chain. Bounds are passed on as bounds.

T5 sequence (chain, as listed by the source limits assumed): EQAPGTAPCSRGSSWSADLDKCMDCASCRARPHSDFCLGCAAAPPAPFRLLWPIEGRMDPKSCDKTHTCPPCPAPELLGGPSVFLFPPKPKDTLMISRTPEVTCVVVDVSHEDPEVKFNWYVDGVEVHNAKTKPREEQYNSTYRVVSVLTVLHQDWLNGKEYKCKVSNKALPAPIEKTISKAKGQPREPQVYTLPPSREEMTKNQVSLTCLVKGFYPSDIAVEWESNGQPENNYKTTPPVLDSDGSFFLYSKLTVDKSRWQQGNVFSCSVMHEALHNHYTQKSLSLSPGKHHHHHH

B1: TPP-1853 (antibody, human IgG1, kappa, V domains shown)
VH: EVQLLESGGGLVQPGGSLRLSCAASGFTFSPYPMMWVRQAPGKGLEWVSYISPSGGKTHYADSVKGRFTISRDNSKNTLYLQMNSLRAEDTAVYYCARGGDTYFDYFDYWGQGTLVTVSS
VL: DIQMTQSPATLSASVGDRVTITCRASQSISSYLNWYQQKPGKAPKLLIYNASSLQSGVPSRFSGSGSGTDFTLTISSLQPEDFATYYCQQSYTSPGITFGPGTKVEIKR
notes: Human IgG1
As for B1, in assay [1], the “Fold induction of Caspase 3/7, 786-O cells, 100 ug/ml” value is 1.88 fold; the “Fold induction of Caspase 3/7, HT-29 cells, 100 ug/ml” value came out at 2.53 fold; the “Fold induction of Caspase 3/7, NCI-H322 cells, 100 ug/ml” value was determined as 1.94 fold. Also, the “% binding normalized by wt binding signal” value (“% binding normalized” below) in assay [2] was less than 5%.

B2: TPP-883 (antibody, human IgG1, kappa, V domains shown)
VH: B1 VH with T102G
VL: B1 VL with N50A, T93S
notes: Human IgG1; parent antibody from the phage library
By Kd is commonly meant a measure of binding affinity in units of concentration. One may read the koff as the rate constant with which the complex falls apart. Low values mean slow dissociation, high ones fast dissociation. Usually kon stands for a measure of how fast the partners come together. Low values mean slower complex formation, high ones faster complex formation. With B2, in assay [3], the Kd turned out to be 206 nM, the koff is 0.91 s⁻¹ and the association rate constant (kon) is 4.4e+06 M⁻¹ s⁻¹. The “% binding normalized” value in assay [2] was less than 5%.

B3: TPP-2093 (antibody, human IgG1, kappa, V domains shown)
VH: B1 VH with K57S
VL: B1 VL with A9S, T10S, N50Q, G96F, P101Q
notes: Human IgG1
Regarding B3, the “Fold induction of Caspase 3/7, 786-O cells, 100 ug/ml” value in assay [1] came to 1.43 fold. The “Fold induction of Caspase 3/7, HT-29 cells, 100 ug/ml” value in assay [1] turned out to be 2.54 fold. Besides, the “% Inhibition of proliferation, A253 cells, 72h, 100 ug/ml” value in assay [4] was greater than 100%. In addition, the “% Inhibition of proliferation, HT-29 cells, 24h, 100 ug/ml” value in [4] was greater than 100%. In addition, the “GeoMean of Fluorescence minus GeoMean with the secondary antibody only” value in assay [5] was 255; in [6], 875; in assay [7], 1720; in assay [8], 18200; in [9] it was 2180; in assay [10], 160. Also, binding in [3] was put at a Kd of 22.1 nM. Besides, the koff in [3] is 0.09 s⁻¹. The molecule also yielded a kon in assay [3] of 4.1e+06 M⁻¹ s⁻¹. Further, the “% binding normalized” value in [2] was less than 5%.

B4: TPP-2148 (antibody, human IgG1, kappa, V domains shown)
VH: B1 VH
VL: B1 VL with N50Q, G96F
notes: Human IgG1
In assay [3], B4 had a dissociation constant Kd of 24.5 nM, a koff of 0.13 s⁻¹ and a kon of 5.1e+06 M⁻¹ s⁻¹. For the same molecule, the “% binding normalized” value in [2] is less than 5%.

B5: TPP-1854 (antibody, human IgG1, kappa, V domains shown)
VH: B1 VH with M35I
VL: B1 VL with S31G, G96F
notes: Human IgG1
Regarding B5, the “IL-8 release from A375 cells at 100 ug/ml, % of the activation by 300 ng/ml TWEAK ligand” value in assay [11] turned out to be 129%. Also, in assay [1], the “Fold induction of Caspase 3/7, 786-O cells, 100 ug/ml” value amounted to 2.11 fold; the “Fold induction of Caspase 3/7, HT-29 cells, 100 ug/ml” value was determined as 2.7 fold; the “Fold induction of Caspase 3/7, NCI-H322 cells, 100 ug/ml” value is 1.98 fold. Further, in [2], the “% binding normalized” value was less than 5%.

B6: TPP-1857 (antibody, human IgG1, kappa, V domains shown)
VH: B1 VH
VL: B1 VL with S31G
notes: Human IgG1
Turning to B6, in [1], the “Fold induction of Caspase 3/7, 786-O cells, 100 ug/ml” value turned out to be 1.76 fold; the “Fold induction of Caspase 3/7, HT-29 cells, 100 ug/ml” value stood at 2.37 fold; the “Fold induction of Caspase 3/7, NCI-H322 cells, 100 ug/ml” value came to 1.89 fold. In [2], the “% binding normalized” value is less than 5%.

B7: TPP-2149 (antibody, human IgG1, kappa, V domains shown)
VH: B1 VH with M35I
VL: B1 VL with S31G, N50Q, G96F
notes: Human IgG1
In assay [3], B7 gave a Kd of 12.1 nM, a koff of 0.1 s⁻¹ and a kon of 8.4e+06 M⁻¹ s⁻¹. In [2], the “% binding normalized” value is less than 5%.

B8: TPP-1858 (antibody, human IgG1, kappa, V domains shown)
VH: B1 VH
VL: B1 VL with G96F
notes: Human IgG1
Take B8: in assay [1], the “Fold induction of Caspase 3/7, 786-O cells, 100 ug/ml” value came to 2.22 fold; the “Fold induction of Caspase 3/7, HT-29 cells, 100 ug/ml” value came out at 2.41 fold; the “Fold induction of Caspase 3/7, NCI-H322 cells, 100 ug/ml” value came to 2.01 fold. For the same molecule, in [2], the “% binding normalized” value is less than 5%.

B9: ITEM-4 (antibody, V domains shown)
VH: QVQLQQSGPELVKPGASVKMSCKASGYTFTDFIIAWVKQRTGQGLEWIGEIYPGTGRTYYSEKFRGKATLTADKSSNTAYMQLSSLTSVDSAVYFCARRTIYYDYDGDYWGQGTTLTVSS
VL: DIVMTQAAFSNPVTLGTSASISCRSSKSLLHSNGITYLYWYLQKPGQSPQLLIYQMSNLASGVPDRFSSSGSGTDFTLRISRVEAEDVGVYYCAHNLELPWTFGGGTKLELK
In turn, B9 came in with a Kd in assay [3] of 0.7 nM.

B10: P3G5(TPP-2195) (antibody, mouse IgG2a, kappa, V domains shown)
VH: QVQLQQSGPEVVRPGVSVKISCKGSGYTFTDYGIHWVKQSHAKSLEWIGVISTYNGYTNYNQKFKGKATMTVDKSSSTAYMELARLTSEDSAIYYCARAYYGNLYYAMDYWGQGTSVTVSS
VL: DIVLTQSPASLAVSLGQRATISCRANKSVSTSSYSYMHWYQQKPGQPPKLLIKYASNLESGVPARFSGSGSGTDFILNIHPVEEEDAATYYCQHSRELPFTFGSGTKLEIKR
notes: Murine IgG2a; variable domains from WO2009/140177 with constant region added
In [3], B10 registered a Kd of 0.5 nM. The same molecule displayed a koff in assay [3] of 0.00122 s⁻¹. This molecule had a kon in [3] of 2.31e+06 M⁻¹ s⁻¹. In addition, the binding result in assay [12], in assay [13], in assay [14], in assay [15], in [16] and in [17] was “binds” throughout. Also, the binding result in [18], in assay [19] and in [20] was “binds” in each case.

B11: 18.3.3(TPP-2193) (antibody, mouse IgG2a, kappa, V domains shown)
VH: EVKLGESGGGLVQPGGSMKLSCVASGFPFTKYWMNWVRQSPEKGLEWVAEIRLKSDNYATHYAESAKGRFTISRDDSRSSVYLQMNNLRAEDTAIYYCSPTYADTMDYWGQGTSVTVSS
VL: DIVLTQSPASLAVSLGQRATISCKASQSVSTSTYSYMQWYQQRPGQSPKLLIKYASKLDSGVPARFSGSGSGTDFTLNIHPVEEEDTATYYCQHSWELPYTFGGGTRLEIKR
notes: Murine IgG2a; variable domains from WO2009/020933 with constant region added
B11: the Kd in assay [3] is 1.7 nM. Moreover, the koff in assay [3] came out at 0.0285 s⁻¹. In addition, the kon in assay [3] stood at 1.64e+07 M⁻¹ s⁻¹. The binding result in assay [12], in assay [13], in [14], in [15], in assay [17] and in [18] was “binds” throughout.
